According to publication PMC3812903 (Biochemistry, 2013):
Where two headings read alike, the source gives them in different places.

Columns and labels:
NarJ = conditions: cited from earlier work
[1] = molecular target: DmsAL15-41 (DmsA twin-arginine leader peptide, residues 15-41) (UniProt P18775); experiment: ITC; conditions: pH 8.0; 30 °C (303.15 K); 100 mM NaCl; 25 mM Tris-HCl (pH 8.0)
[2] = molecular target: DmsAL15-41 KK (DmsA leader peptide residues 15-41, twin arginines changed to lysines) R16K;R17K (UniProt P18775); experiment: ITC; conditions: pH 8.0; 30 °C (303.15 K); 100 mM NaCl; 25 mM Tris-HCl (pH 8.0)
[3] = molecular target: DmsAL17-41 (DmsA twin-arginine leader peptide, residues 17-41) (UniProt P18775); experiment: ITC; conditions: pH 8.0; 30 °C (303.15 K); 100 mM NaCl; 25 mM Tris-HCl (pH 8.0)
[4] = molecular target: DmsAL21-41 (DmsA twin-arginine leader peptide, residues 21-41) (UniProt P18775); experiment: ITC; conditions: pH 8.0; 30 °C (303.15 K); 100 mM NaCl; 25 mM Tris-HCl (pH 8.0)
TorD (Escherichia coli) = TorD (Escherichia coli) (UniProt P36662); conditions: cited from earlier work
Chain of UniProt P36662 (P36662 whole entry): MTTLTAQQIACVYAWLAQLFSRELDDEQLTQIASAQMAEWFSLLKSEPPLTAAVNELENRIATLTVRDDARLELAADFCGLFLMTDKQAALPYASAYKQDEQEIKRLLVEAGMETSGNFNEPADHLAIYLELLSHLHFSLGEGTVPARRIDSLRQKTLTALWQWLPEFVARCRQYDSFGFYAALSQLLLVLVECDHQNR

[5] = molecular target: DmsD (His6T7::DmsD construct) (E. coli) (UniProt P69853); experiment: ITC
DmsD (Escherichia coli) [6] = molecular target: DmsD (Escherichia coli) (UniProt P69853); conditions: cited from earlier work
DmsD (Escherichia coli) [7] = molecular target: DmsD (Escherichia coli) (UniProt P69853); conditions: cited from earlier work; remark: listed apart in the source
NarJ (Escherichia coli) = NarJ (Escherichia coli) (UniProt P0AF26); conditions: cited from earlier work
Chain of UniProt P0AF26 (P0AF26 whole entry): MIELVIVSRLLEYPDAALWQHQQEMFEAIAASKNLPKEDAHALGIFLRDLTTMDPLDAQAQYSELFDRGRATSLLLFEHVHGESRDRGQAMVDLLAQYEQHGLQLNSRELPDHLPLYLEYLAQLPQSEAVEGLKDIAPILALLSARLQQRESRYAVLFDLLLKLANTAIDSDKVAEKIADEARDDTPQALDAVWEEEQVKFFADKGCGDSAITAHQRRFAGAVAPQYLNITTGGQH

Row | Kd [5] | stoichiometry N [5] | dH [5] | Substance | other results
1 |  |  |  | 15 N-terminal residues of NarG: 15 amino-terminal residues of NarG, contain a remnant RR motif (MSKFLDRFRYFKQKG; UniProt P09152 1-15, looked up, fragment) | Kd (NarJ): ~100 nM
2 |  |  |  | DmsD (Tat proofreading chaperone / redox enzyme maturation protein) | ΔH (apparent, Tris) [1]: -11.7 kcal/mol; ΔH (apparent, Tris) [2]: -10 kcal/mol; ΔH (apparent, Tris) [3]: -9.5 kcal/mol; ΔH (apparent, Tris) [4]: -4.3 kcal/mol
3 |  |  |  | TorA leader peptide (from UniProt P33225) | Kd (TorD (Escherichia coli)): 1800 nM
4 | 2900 nM | 1.09 |  | DmsAL_(15–41 KK) (from UniProt P18775 15-41) (peptide) | 
5 | 1700 nM | 1.04 | -11.7 kcal/mol | DmsAL_(15–41) (from UniProt P18775 15-41) (peptide) | Ka [5]: 600000 M⁻¹
6 |  |  |  | DmsA leader peptide 1-43 (from UniProt P18775) | Kd (DmsD (Escherichia coli) [6]): 60 nM; Kd (DmsD (Escherichia coli) [7]): 200 nM
7 | 2100 nM | 1.04 | -9.5 kcal/mol | DmsAL_(17–41) (from UniProt P18775 17-41) (peptide) | 
8 |  |  |  | NarG N-terminal peptide 1-15 (from UniProt P09152) | Kd (NarJ (Escherichia coli)): 100 nM
9 | 3900 nM | 1.14 | -4.3 kcal/mol | DmsAL_(21–41) (from UniProt P18775 21-41) (peptide) | Ka [5]: 260000 M⁻¹
